± gives the half width of the 95% confidence interval.
How the values were obtained:
[1] = folding stability dG unfold from chymotrypsin proteolysis; higher = more stable
Method in brief: (§1)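 Designed mini-proteins (under 80 residues, no cysteine) in a PA-tagged cDNA display construct were digested with trypsin and chymotrypsin. Each protease was used at 11 concentrations (threefold dilutions) plus a no-protease condition, followed by sequencing. K50 was inferred by Bayesian fitting of sequencing counts, and unfolding free energy was derived against a sequence-predicted unfolded-state K50 and a shared folded-state K50, per protease or combined. Only designs with AlphaFold2 dimer inter-PAE above 15 were kept.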

[2] = folding stability dG unfold from trypsin proteolysis; higher = more stable
Method in brief: as §1

[3] = folding stability dG unfold (combined trypsin and chymotrypsin); higher = more stable
Method in brief: as §1

Row | Sequence | folding stability dG unfold [1] [kcal/mol] | folding stability dG unfold [2] [kcal/mol] | folding stability dG unfold [3] [kcal/mol]
1 | SMETVELRVRVRVFNPETGELVEEIEVTVTLPKGMTLEEALRRAREALREALERLLRPPEPVLDEDGRLVSA [r9_454_TrROS_Hall] | 4.26 ± 0.19 | 3.66 ± 0.12 | 3.99 ± 0.14
2 | SAGGSAGGIWFMIKSAEDLKNLLNKWGWTIKDISVERWENDDGYVWIPIKIKPVPPPPPPEEDKSAGGSAGG [r6_981_TrROS] | 3.77 ± 0.061 | 2.36 ± 0.086 | 3.06 ± 0.44
3 | SAGGSEWQPIYEFDLPGKKIKVYMPPDGNYRIEVEKKGKPVNFWVPPNMSPSSIDNMLDQAKEQLNSAGGSA [r2_243_TrROS] | 0.339 ± 0.16 | -0.0661 ± 0.25 | 0.343 ± 0.26
4 | SAGGSAGGSEEVVVVEVEGELVVVTKEETVTVVPAPPPPPLTAEQRALAKELEKLGLEVEIRDSAGGSAGGS [r12_172_TrROS_Hall] | -0.505 ± 0.11 | -0.192 ± 0.16 | -0.38 ± 0.37
5 | SAGSMRITVEITFTSPEGVVKTKTVEVDLSSGSIDLSPEVIEAAKKELGLPPNVTVTLTVVEERPELESAGG [r19_287_JUSTAS] | 3.37 ± 0.11 | 4.06 ± 0.22 | 3.69 ± 0.11
6 | SAGGSAGGSKKKKKITIEILIKLKPGESPEEIAKKLEEKLGLKVKKVEVVKENGYYLVKIEIESAGGSAGGS [r20_188_TrROS_Hall] | 3.26 ± 0.044 | 1.52 ± 0.038 | 2.85 ± 0.084
7 | SAGGEIEIDENGFIRMTLYDPATGYKIEAEFRILPDGTIEITKIKIEPLPPPPPPKVFVLDENGELVESAGG [r13_646_TrROS_Hall] | 3.1 ± 0.086 | 3.31 ± 0.2 | 2.77 ± 0.38
8 | SAGGSAGGSAGGKPYVIVPVTVRFTIDIPKDHPLLKELDINPEDVKIEFEFSFLGEVPASAGGSAGGSAGGS [r10_82_TrMRF] | 2.97 ± 0.089 | 2.66 ± 0.096 | 2.95 ± 0.12
9 | SAGGSAGGSAGGSSGTSVSTEVSSSPVVTKTEYTKLDDGWSTTTTVVSTLPNALAPELTTSAGGSAGGSAGG [r7_845_JUSTAS] | 0.255 ± 0.024 | 1.06 ± 0.082 | 0.727 ± 0.079
10 | SAGGMIKPGEKVKVRAVLRVGEEEEEIELELPLPENATVEDIAQAILDLIPEEPRKDAEVDIEVEPVSAGGS [r16_321_TrMRF] | 1.21 ± 0.094 | -0.468 ± 0.3 | 0.93 ± 0.14
11 | SAGGSAGGSAGGSMVVEFSVGDTPIATIPFPGTEEEAKAAVEKLKEEYPSAEVKFTVHDESAGGSAGGSAGG [r7_81_JUSTAS] | 0.169 ± 0.075 | 0.471 ± 0.031 | 0.342 ± 0.14
12 | SAGMVITETEELPDRTITTVKYSDGKVVIETLEYDPNSNVVTKTVTTIDLSNPSVSKTTTTVEPDPAPSAGG [r19_102_JUSTAS] | 1.81 ± 0.063 | 1.15 ± 0.099 | 1.62 ± 0.092
13 | SAGGSAGGSAGMRIRAEVVEISPPGAVIVLRYEIEFPLPDDEPVRLEFDAVLYIPVPPEASAGGSAGGSAGG [r11_689_TrMRF] | 4.16 ± 0.098 | 2.63 ± 0.12 | 3.69 ± 0.13
14 | SAGGSAGGSAMDVFTAALNNKELEEAIKKASPDEKEIEIELPGGKKIRIFRTDDGGYIFEPSAGGSAGGSAG [r3_124_TrMRF] | 1.32 ± 0.11 | 1.8 ± 0.055 | 1.52 ± 0.11
15 | SLSKSTPVSSLEEALKIAKEAAEEFEKELGKPYPVLVEVEFEPLEDGSVLVRFKLYRPEEGKYLREIEVGSA [r9_794_TrMRF] | 1.67 ± 0.2 | 0.874 ± 0.064 | 1.38 ± 0.18
16 | SAGGMEFTPDQFLIIVLGLPDDTLEVAIIPAGDIEKAFEELGFPLEEVDILEIVEADLTPEEAEELAESAGG [r13_850_TrMRF] | 1.55 ± 0.046 | 1.81 ± 0.1 | 1.68 ± 0.088
17 | SAGGSAGGSAGKKVTLKVLVKNENGKLYMFEAEYEFDENGKLVKVKVKVYEVEVKDLKLPSAGGSAGGSAGG [r11_1019_TrROS_Hall] | 3.02 ± 0.039 | 2.66 ± 0.13 | 2.86 ± 0.16
18 | SAGMKIETIPEVDYVVIEIDAKSLEEAIETLKYLTEKLGLKKVIAVADPTSNKVIAIAEVGNPEALEKLSAG [r5_598_TrMRF] | 1.56 ± 0.057 | 2.33 ± 0.07 | 1.96 ± 0.1
19 | SAGGSAPVEVRVSVEVLPDGTLRITVEFTLPNGEKLSVEFTIPLAPVPVVDLTSPEALFPALSLLSSAGGSA [r15_1018_TrMRF] | 2.41 ± 0.069 | 2.43 ± 0.07 | 2.42 ± 0.17
20 | SAGKVVKISAPIEVLRNIPNVLELYVVGDKVYLVVPNELLVVDLDLPPLVPTVPESVPEELALLGGLLGSAG [r5_2_TrMRF] | 1.74 ± 0.052 | 0.728 ± 0.051 | 1.48 ± 0.13
21 | SAGGSAGGSAGDNKPKPIKIRIESYYPNGKKQEHDFEVPDPEDLDELAKTNPGYKIDEIESAGGSAGGSAGG [r11_802_TrROS] | 0.821 ± 0.056 | -0.258 ± 0.057 | 0.478 ± 0.12

Row | Sequence | folding stability dG unfold [1] [kcal/mol] | folding stability dG unfold [2] [kcal/mol] | folding stability dG unfold [3] [kcal/mol]
22 | SAKASELLKKLPFEAEIEEGEEFVKIKLKNPFLKNPNVTFEFEIPTKKGKPIKVKVTLTKNGAEKIEPSSAG [r14_401_TrMRF] | 2.18 ± 0.078 | 2.57 ± 0.14 | 2.25 ± 0.34
23 | SAGGSAGGSAGGSKMYKIKIVNKKTKKVITVEVSEEDIEKALEAAKKAGVEKIEIEEVPSAGGSAGGSAGGS [r4_102_TrROS_Hall] | 1.7 ± 0.12 | 2.03 ± 0.17 | 1.82 ± 0.13
24 | SAGMDMEEAEKLAEEIAEQLAKELEKKTGIKPEKIKIEVTVTKLPDGSYLITIKATLEDKEVEKTYTIASAG [r14_226_JUSTAS] | 2.28 ± 0.066 | 3.11 ± 0.21 | 2.68 ± 0.12
25 | SAGGSAGGSFRIDPEKIEKVKHHRNPNGGGYHTIRLPGGPVKIPFRGMDPGDMEDQVKNFLKNSAGGSAGGS [r12_585_TrROS] | 0.267 ± 0.19 | 0.161 ± 0.11 | 0.236 ± 0.14
26 | SAGGSAGGSKKKPPPVKVKIRVVVDGKVYEIEIEVDPNMTVEEIKEALRKLLGPDIKEVEIEPSAGGSAGGS [r12_300_TrROS_Hall] | 1.93 ± 0.25 | 2.91 ± 0.29 | 3.07 ± 0.64
27 | SAGGSAGGSAGGMTVRITTPDGRVIEIPAKDLSPEQLAALKEAGFEVVSVEPGRVTIRLKSAGGSAGGSAGG [r7_496_TrROS_Hall] | 1.92 ± 0.036 | 0.865 ± 0.1 | 1.49 ± 0.13
28 | SAGSSPSLVLKVEIPVEIKEKRKFLLPNGETKTELTTRTITHTIVVEAGTDPAKLEEALALAEEIKEKKSAG [r14_830_JUSTAS] | 0.00535 ± 0.31 | -0.85 ± 0.57 | -0.276 ± 0.25
29 | SAGGPFRIEDISIQRDPDNGKLTIIIPFPAPPGQEIKIKVRDPGNGKEKKFDMKVEPLPNGYLTMTISAGGS [r8_195_TrROS] | 2.17 ± 0.11 | 1.82 ± 0.14 | 1.91 ± 0.21
30 | SAGGSAGGSAGKPEVKVEAEVEPYPETDLVVVNVRVYVDGVPVEIPFVVPPSVAEAFLKASAGGSAGGSAGG [r11_700_TrMRF] | 1.26 ± 0.024 | 1.08 ± 0.03 | 1.16 ± 0.048
31 | SAGGSAGGSATVKIVETKVGADGAVYTTALVTLPNGGVLIVKTKTYPSGESETSVTLTSGKEFSAGGSAGGS [r12_995_TrMRF] | 1.74 ± 0.045 | 2.21 ± 0.081 | 2 ± 0.071
32 | SAGGMTVPIFVPVDSPEQVEEILEELATPDVKEIVPATLPPLPPPGDKMVVPINITIFPGTGKAVIDASAGG [r13_174_TrMRF] | 0.991 ± 0.014 | -1.08 ± 0.12 | 0.492 ± 0.086
33 | SAGGSAGGSAPVIRIEVDGKVYEIPADVLKEKGLTIEELAEELEKKHNIKVEKVEDGTIRVTSAGGSAGGSA [r18_7_TrROS_Hall] | 2.41 ± 0.039 | 1.66 ± 0.067 | 2.1 ± 0.078
34 | SAGGMSPELAADPNVKRVLRFPEPGVFLAYYPEKGLLLLTPPDGKVLLIEAKPEEAEKLVESGLKPESAGGS [r16_745_TrMRF] | -0.446 ± 0.19 | 0.028 ± 0.12 | -0.0606 ± 0.13
35 | MMKVKIEVRNEENEEVLTIELEVPEGEELTEEEILDLIAERLGLSKEELRKRVRIEYDEETKRIRIEIRIES [r1_285_TrROS_Hall] | 2.27 ± 0.036 | 3.5 ± 0.053 | 2.87 ± 0.08
36 | SAGGSAGGDSIEFIIPYDDMPKEEAKRRVRWIANGFAEHNPGKPIEIEIHVIPVPPPPSPEDKNSAGGSAGG [r6_729_TrROS] | -0.467 ± 0.66 | -0.0761 ± 0.16 | -0.163 ± 0.16
37 | SAGGSAGGSAGGDPDERIPIKIEMWHPNKPYEHEFPVGMDLSDIADPFASDGFMVRIEISAGGSAGGSAGGS [r10_540_TrROS] | 1.26 ± 0.07 | 0.795 ± 0.058 | 1.05 ± 0.14
38 | SAGGSIEEIAETLRDLLAPPEYEVDVEVVEVEVDPINPRIKRVRLKATVYPPDGSSREIEFEIPFDELSAGG [r13_215_TrMRF] | 1.77 ± 0.029 | 1.68 ± 0.042 | 1.71 ± 0.062
39 | SAGKKLKITDPEYKYYPNEGMYWVTIPIRFPDGKPIFDIDYPMPPGQSWDQVREQAKDIARWLIEEGLISAG [r5_238_TrROS] | 1.93 ± 0.13 | 0.639 ± 0.059 | 1.52 ± 0.095
40 | SAGGSASTLRLIVIPPSYPNMTIEEAIKNIKIKRPDGKEFEVEVLEVIPVKDYRLLLVRIKDPIPYSAGGSA [r15_331_TrMRF] | 2.46 ± 0.071 | 2.32 ± 0.058 | 2.43 ± 0.14
41 | SSITVVETREERVTLPDGREVTRRETRVVELSEEELRRLLRERLREALREAGIEEVTEEDLDSPEVLAALSA [r9_263_TrROS_Hall] | 2.2 ± 0.032 | 1.2 ± 0.054 | 1.86 ± 0.12
42 | SAGGSAGGSAGIKTESLEEALEYVKKTFPPGTKVEIVVEGDGKPIKITVTVLENGEIKVESAGGSAGGSAGG [r17_69_TrMRF] | 3.24 ± 0.036 | 3.97 ± 0.16 | 3.58 ± 0.12

Source: the supplement of paper PMC12764529
